Data: patent US20160279215A1, “NOVEL PEPTIDES AND COMBINATION OF PEPTIDES FOR USE IN IMMUNOTHERAPY AGAINST VARIOUS TUMORS” (immatics biotechnologies GmbH, priority 2015, published 2016)

These substances were tested against T1, HLA-A*02:01 (Homo sapiens, UniProt P04439, D140Y/D185E/D98H/E176V/E277Q/G131W/G231S/I119V/I121R/I166T/I218V/L300P/L318F/N151K/N90K/P208A/P217A/Q86G/Q94H/R138H/R169H/T345S) (assay: MHC binding assay: UV-ligand exchange with β2m ELISA (peptide exchange yield)). Conditions: binding to HLA-A*02:01 evaluated by peptide exchange yield (UV-ligand exchange, β2m ELISA).
T1 construct: made in house
Description: Candidate peptides for T cell based therapies according to the present invention were further tested for their MHC binding capacity (affinity). The individual peptide-MHC complexes were produced by UV-ligand exchange, where a UV-sensitive peptide is cleaved upon UV-irradiation, and exchanged with the peptide of interest as analyzed. Only peptide candidates that can effectively bind and stabilize the peptide-receptive MHC molecules prevent dissociation of the MHC complexes. To determine the yield of the exchange reaction, an ELISA was performed based on the detection of the light chain (β2m) of stabilized MHC complexes. The assay was performed as generally described in Rodenko et al. (Rodenko et al., 2006).
96 well MAXISorp plates (NUNC) were coated over night with 2 ug/ml streptavidin in PBS at room temperature, washed 4× and blocked for 1 h at 37° C. in 2% BSA containing blocking buffer. Refolded HLA-A*02:01/MLA-001 monomers served as standards, covering the range of 15-500 ng/ml. Peptide-MHC monomers of the UV-exchange reaction were diluted 100 fold in blocking buffer. Samples were incubated for 1 h at 37° C., washed four times, incubated with 2 ug/ml HRP conjugated anti-β2m for 1 h at 37° C., washed again and detected with TMB solution that is stopped with […]. Absorption was measured at 450 nm. Candidate peptides that show a high exchange yield (preferably higher than 50%, most preferred higher than 75%) are generally preferred for a generation and production of antibodies or fragments thereof, and/or T cell receptors or fragments thereof, as they show sufficient avidity to the MHC molecules and prevent dissociation of the MHC complexes.
“19 (KVFELDLVTL; listed as Homo sapiens) [compound 19]” was tested, and the Peptide exchange was “++ (≧20% = ++)”. For “212 (MTLSEIHAV; listed as Homo sapiens) [compound 212]”, the Peptide exchange was “++ (≧20% = ++)”. For “60 (YLFSQGLQGL; listed as Homo sapiens) [compound 60]”, the Peptide exchange was “+++ (≧50 = +++)”. For “125 (AALEVLAEV; listed as Homo sapiens) [compound 125]”, the Peptide exchange was “+++ (≧50 = +++)”. “215 (QIADIVTSV; listed as Homo sapiens) [compound 215]” was tested, and the Peptide exchange was “++ (≧20% = ++)”. For “277 (KLQEELNKV; listed as Homo sapiens) [compound 277]”, the Peptide exchange was “+++ (≧50 = +++)”. In the case of “268 (SLDKDIVAL; listed as Homo sapiens) [compound 268]”, the Peptide exchange is reported as “++ (≧20% = ++)”. With “216 (ALSTVTPRI; listed as Homo sapiens) [compound 216]” the Peptide exchange was “++ (≧20% = ++)”. “61 (ALYPKEITL; listed as Homo sapiens) [compound 61]” was tested, and the Peptide exchange was “+++ (≧50 = +++)”. With “18 (KTASINQNV; listed as Homo sapiens) [compound 18]” the Peptide exchange was “++ (≧20% = ++)”. For “51 (LDSEALLTL; listed as Homo sapiens) [compound 51]”, the Peptide exchange was “++ (≧20% = ++)”. In the case of “222 (LLTGVFAQL; listed as Homo sapiens) [compound 222]”, the Peptide exchange is reported as “++ (≧20% = ++)”. “265 (FLLDKPQDLSI; listed as Homo sapiens) [compound 265]” was tested, and the Peptide exchange was “+++ (≧50 = +++)”. In the case of “1 (KLQEKIQEL; listed as Homo sapiens) [compound 1]”, the Peptide exchange is reported as “++++ (≧75% = ++++)”. For “165 (SLLDYEVSI; listed as Homo sapiens) [compound 165]”, the Peptide exchange was “+++ (≧50 = +++)”. “174 (ALYSGDLHAA; listed as Homo sapiens) [compound 174]” was tested, and the Peptide exchange was “++ (≧20% = ++)”. “200 (IMPTFDLTKV; listed as Homo sapiens) [compound 200]” was tested, and the Peptide exchange was “+++ (≧50 = +++)”. For “243 (GLAEFQENV; listed as Homo sapiens) [compound 243]”, the Peptide exchange was “++ (≧20% = ++)”. With “187 (SILKEDPFL; listed as Homo sapiens) [compound 187]” the Peptide exchange was “++ (≧20% = ++)”. In the case of “284 (KLMDPGSLPPL; listed as Homo sapiens) [compound 284]”, the Peptide exchange is reported as “++ (≧20% = ++)”. With “140 (FLDSQITTV; listed as Homo sapiens) [compound 140]” the Peptide exchange was “+++ (≧50 = +++)”. In the case of “155 (TLDSYLKAV; listed as Homo sapiens) [compound 155]”, the Peptide exchange is reported as “++ (≧20% = ++)”. “30 (IITEVITRL; listed as Homo sapiens) [compound 30]” was tested, and the Peptide exchange was “+++ (≧50 = +++)”. In the case of “183 (ALSYILPYL; listed as Homo sapiens) [compound 183]”, the Peptide exchange is reported as “+++ (≧50 = +++)”. “128 (SILTNISEV; listed as Homo sapiens) [compound 128]” was tested, and the Peptide exchange was “++ (≧20% = ++)”. In the case of “3 (RVIDDSLVVGV; listed as Homo sapiens) [compound 3]”, the Peptide exchange is reported as “+++ (≧50 = +++)”. For “180 (RLYEEEIRI; listed as Homo sapiens) [compound 180]”, the Peptide exchange was “+++ (≧50 = +++)”. “107 (RVLPGQAVTGV; listed as Homo sapiens) [compound 107]” was tested, and the Peptide exchange was “++ (≧20% = ++)”. With “81 (ILAEEPIYI; listed as Homo sapiens) [compound 81]” the Peptide exchange was “++ (≧20% = ++)”. With “31 (GLLETTGLLAT; listed as Homo sapiens) [compound 31]” the Peptide exchange was “+++ (≧50 = +++)”. “159 (QLGPVPVTI; listed as Homo sapiens) [compound 159]” was tested, and the Peptide exchange was “+++ (≧50 = +++)”. In the case of “182 (GLQDGFQITV; listed as Homo sapiens) [compound 182]”, the Peptide exchange is reported as “+++ (≧50 = +++)”. With “278 (VLEDKVLSV; listed as Homo sapiens) [compound 278]” the Peptide exchange was “+++ (≧50 = +++)”. For “171 (LLLLDVPTA; listed as Homo sapiens) [compound 171]”, the Peptide exchange was “++ (≧20% = ++)”. “274 (TLYNPERTITV; listed as Homo sapiens) [compound 274]” was tested, and the Peptide exchange was “+++ (≧50 = +++)”. “250 (LMQDSRLYL; listed as Homo sapiens) [compound 250]” was tested, and the Peptide exchange was “+++ (≧50 = +++)”. With “203 (FLFVDPELV; listed as Homo sapiens) [compound 203]” the Peptide exchange was “++ (≧20% = ++)”. With “146 (VVAAHLAGA; listed as Homo sapiens) [compound 146]” the Peptide exchange was “++ (≧20% = ++)”. For “116 (ALLSSVAEA; listed as Homo sapiens) [compound 116]”, the Peptide exchange was “++ (≧20% = ++)”. With “235 (SLLNQPKAV; listed as Homo sapiens) [compound 235]” the Peptide exchange was “++ (≧20% = ++)”. With “98 (FVQEKIPEL; listed as Homo sapiens) [compound 98]” the Peptide exchange was “+++ (≧50 = +++)”. In the case of “54 (YLVPGLVAA; listed as Homo sapiens) [compound 54]”, the Peptide exchange is reported as “+++ (≧50 = +++)”. In the case of “113 (FLFLKEVKV; listed as Homo sapiens) [compound 113]”, the Peptide exchange is reported as “++ (≧20% = ++)”. For “136 (LLWDAPAKC; listed as Homo sapiens) [compound 136]”, the Peptide exchange was “+++ (≧50 = +++)”. “173 (RLIDIYKNV; listed as Homo sapiens) [compound 173]” was tested, and the Peptide exchange was “+++ (≧50 = +++)”. For “239 (VIIKGLEEITV; listed as Homo sapiens) [compound 239]”, the Peptide exchange was “+++ (≧50 = +++)”. “16 (SLADLSLLL; listed as Homo sapiens) [compound 16]” was tested, and the Peptide exchange was “+++ (≧50 = +++)”. With “190 (SLSTELFKV; listed as Homo sapiens) [compound 190]” the Peptide exchange was “+++ (≧50 = +++)”. With “144 (FLISQTPLL; listed as Homo sapiens) [compound 144]” the Peptide exchange was “+++ (≧50 = +++)”. For “210 (GLAGDNIYL; listed as Homo sapiens) [compound 210]”, the Peptide exchange was “+++ (≧50 = +++)”. In the case of “142 (LLDAAHASI; listed as Homo sapiens) [compound 142]”, the Peptide exchange is reported as “++ (≧20% = ++)”. In the case of “37 (QIVELIEKI; listed as Homo sapiens) [compound 37]”, the Peptide exchange is reported as “++ (≧20% = ++)”. “96 (ALDTTRHEL; listed as Homo sapiens) [compound 96]” was tested, and the Peptide exchange was “++ (≧20% = ++)”. In the case of “12 (RLLDPKTIFL; listed as Homo sapiens) [compound 12]”, the Peptide exchange is reported as “+++ (≧50 = +++)”. In the case of “258 (QLVQRVASV; listed as Homo sapiens) [compound 258]”, the Peptide exchange is reported as “++ (≧20% = ++)”. In the case of “273 (SLNKQIETV; listed as Homo sapiens) [compound 273]”, the Peptide exchange is reported as “++ (≧20% = ++)”. For “90 (AILNVDEKNQV; listed as Homo sapiens) [compound 90]”, the Peptide exchange was “++ (≧20% = ++)”. “109 (ILGSFELQL; listed as Homo sapiens) [compound 109]” was tested, and the Peptide exchange was “+++ (≧50 = +++)”. In the case of “177 (ALINVLNAL; listed as Homo sapiens) [compound 177]”, the Peptide exchange is reported as “+++ (≧50 = +++)”. “193 (ALFHMNILL; listed as Homo sapiens) [compound 193]” was tested, and the Peptide exchange was “+++ (≧50 = +++)”. “158 (YLDPLWHQL; listed as Homo sapiens) [compound 158]” was tested, and the Peptide exchange was “+++ (≧50 = +++)”. For “84 (FLLEREQLL; listed as Homo sapiens) [compound 84]”, the Peptide exchange was “++++ (≧75% = ++++)”. In the case of “82 (ILAEEPIYIRV; listed as Homo sapiens) [compound 82]”, the Peptide exchange is reported as “+++ (≧50 = +++)”. For “285 (MLLDTVQKV; listed as Homo sapiens) [compound 285]”, the Peptide exchange was “+++ (≧50 = +++)”. For “141 (NIDINNNEL; listed as Homo sapiens) [compound 141]”, the Peptide exchange was “++ (≧20% = ++)”. For “276 (RMPTVLQCV; listed as Homo sapiens) [compound 276]”, the Peptide exchange was “+++ (≧50 = +++)”. “218 (SLTGANITV; listed as Homo sapiens) [compound 218]” was tested, and the Peptide exchange was “+++ (≧50 = +++)”. For “139 (IILENIQSL; listed as Homo sapiens) [compound 139]”, the Peptide exchange was “+++ (≧50 = +++)”. In the case of “241 (KQFEGTVEI; listed as Homo sapiens) [compound 241]”, the Peptide exchange is reported as “+++ (≧50 = +++)”. In the case of “13 (RLHDENILL; listed as Homo sapiens) [compound 13]”, the Peptide exchange is reported as “+++ (≧50 = +++)”. For “219 (GVVPTIQKV; listed as Homo sapiens) [compound 219]”, the Peptide exchange was “++ (≧20% = ++)”. For “238 (HLQEKLQSL; listed as Homo sapiens) [compound 238]”, the Peptide exchange was “++ (≧20% = ++)”. For “226 (SLAGNLQEL; listed as Homo sapiens) [compound 226]”, the Peptide exchange was “+++ (≧50 = +++)”.
